Assay results from US20100233095A1.
pyrene = pyrene (fluorescent label)

Biological target: fibrillar amyloid target protein (UniProt P05067)
Assay: pyrene excimer:monomer fluorescence ratio of di-pyrene probe in the presence of fibrillar amyloid target protein

B1: Peptide 22 (SEQ ID NO:2) (peptide)
peptide: pyrene-KLVFFAEDVGSNKHAIIELMK(pyrene)-NH2
- maximal signal gain relative to the reference peptide (SEQ ID NO:1): 2.6 fold
